Results from US9327008B2, “Cell-permeant peptide-based inhibitor of kinases” (Purdue Research Foundation, priority 2008, dated 2016).

What was measured:
Format in all cases: biochemical
JAK3 = biological target: T1, JAK3 (Homo sapiens, UniProt P52333); assay: Millipore radiometric kinase activity assay, JAK3 (h)
T1 construct: purchased Millipore (assay service)
T1 sequence (P52333 1-1124): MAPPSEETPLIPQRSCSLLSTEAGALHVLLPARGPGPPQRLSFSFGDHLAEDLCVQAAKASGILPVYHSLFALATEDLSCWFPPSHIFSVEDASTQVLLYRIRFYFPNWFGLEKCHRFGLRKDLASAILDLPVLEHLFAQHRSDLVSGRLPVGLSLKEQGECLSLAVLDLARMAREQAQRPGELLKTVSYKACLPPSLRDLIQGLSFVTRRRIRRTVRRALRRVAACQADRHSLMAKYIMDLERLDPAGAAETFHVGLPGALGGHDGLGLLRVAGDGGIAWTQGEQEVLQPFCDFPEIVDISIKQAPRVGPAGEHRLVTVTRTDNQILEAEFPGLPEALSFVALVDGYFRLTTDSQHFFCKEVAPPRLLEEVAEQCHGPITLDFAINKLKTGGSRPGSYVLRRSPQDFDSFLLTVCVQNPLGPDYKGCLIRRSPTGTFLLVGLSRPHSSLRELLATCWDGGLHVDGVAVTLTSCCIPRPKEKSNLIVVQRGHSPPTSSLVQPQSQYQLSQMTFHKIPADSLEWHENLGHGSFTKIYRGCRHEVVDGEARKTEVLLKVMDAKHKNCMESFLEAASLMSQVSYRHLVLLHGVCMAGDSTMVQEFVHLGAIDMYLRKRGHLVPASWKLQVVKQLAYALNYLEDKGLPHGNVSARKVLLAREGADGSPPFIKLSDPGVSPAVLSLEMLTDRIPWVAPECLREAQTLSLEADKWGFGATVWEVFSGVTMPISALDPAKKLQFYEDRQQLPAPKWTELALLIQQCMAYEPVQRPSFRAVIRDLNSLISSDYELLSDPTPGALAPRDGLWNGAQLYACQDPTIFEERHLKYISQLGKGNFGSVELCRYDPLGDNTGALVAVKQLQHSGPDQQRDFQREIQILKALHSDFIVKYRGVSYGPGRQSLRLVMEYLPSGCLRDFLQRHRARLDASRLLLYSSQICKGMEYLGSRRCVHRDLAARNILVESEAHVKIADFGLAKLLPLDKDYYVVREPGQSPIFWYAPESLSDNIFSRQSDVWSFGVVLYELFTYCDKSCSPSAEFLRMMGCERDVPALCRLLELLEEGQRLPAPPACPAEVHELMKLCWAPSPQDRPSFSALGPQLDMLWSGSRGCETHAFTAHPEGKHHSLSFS
Description: (§1) A commercial radiometric assay service (Millipore, Billerica, Mass.) was used to test the specificity and potency of peptides containing a coupled transduction domain and therapeutic domain, hereinafter “complete peptides”). In these assays, if the kinase is not inhibited by an inhibitor peptide, a positively charged substrate is phosphorylated with a radiolabeled phosphate group from an ATP.
In a final reaction volume of 25 μL, JAK3 (h) (5-10 mU) is incubated with 8 mM MOPS pH 7.0, 0.2 mM EDTA, 500 μM […] [SEQ ID NO: 58], 10 mM MgAcetate and [γ-^33P-ATP] (specific activity approx. 500 cpm/pmol, concentration as required). The reaction is initiated by the addition of the MgATP mix. After incubation for 40 minutes at room temperature, the reaction is stopped by the addition of 5 μL of a 3% phosphoric acid solution. 10 μL of the reaction is then spotted onto a P30 filtermat and washed three times for 5 minutes in 75 mM phosphoric acid and once in methanol prior to drying and scintillation counting.
(§2) IC50 values for inhibitor peptides were determined using Millipore's IC50Profiler Express service. The IC50 value was estimated from a 10-point curve of one-half log dilutions. For peptides tested for specificity, the concentration of the peptides that inhibited approximately 95% of MK2 activity was chosen to profile against a battery of kinases related to MK2, cell viability, or human disease from MilliporeKinaseProfiler service. In both assays, compounds were supplied in dimethylsulfoxide (DMSO). Every kinase activity measurement was conducted in duplicate.
(§3) Therapeutic inhibitor peptides were assayed for activity against human kinases related to MK2, cell viability, or human disease. The assays were performed using concentrations of therapeutic inhibitor peptides that yielded 2% to 8% of normal MK2 activity. Error is reported as the standard deviation between 2 samples, and “c” is rat AMPK whereas all other kinases used are human kinases.

EGFR = biological target: T2, EGFR (Homo sapiens, UniProt P00533); assay: Millipore radiometric kinase activity assay, EGFR (h)
T2 construct: purchased Millipore (assay service)
Description: as §1
In a final reaction volume of 25 μL, EGFR (h) (5-10 mU) is incubated with 8 mM MOPS pH 7.0, 0.2 mM EDTA, 10 mM MnCl2, 0.1 mg/mL poly(Glu, Tyr) 4:1, 10 mM MgAcetate and [γ-^33P-ATP] (specific activity approx. 500 cpm/pmol, concentration as required). The reaction is initiated by the addition of the MgATP mix. After incubation for 40 minutes at room temperature, the reaction is stopped by the addition of 5 μL of a 3% phosphoric acid solution. 10 μL of the reaction is then spotted onto a Filtermat A and washed three times for 5 minutes in 75 mM phosphoric acid and once in methanol prior to drying and scintillation counting.
as §2, §3

Ret = biological target: T3, Ret (Homo sapiens, UniProt P07949); assay: Millipore radiometric kinase activity assay, Ret (h); conditions: peptide 100 μM
T3 construct: purchased Millipore (radiometric assay service)
Description: as §1
In a final reaction volume of 25 μL, Ret (h) (5-10 mU) is incubated with 8 mM MOPS pH 7.0, 0.2 mM EDTA, 250 μM […] [SEQ ID NO: 56], 10 mM MgAcetate and [γ-^33P-ATP] (specific activity approx. 500 cpm/pmol, concentration as required). The reaction is initiated by the addition of the MgATP mix. After incubation for 40 minutes at room temperature, the reaction is stopped by the addition of 5 μl, of a 3% phosphoric acid solution. 10 μL of the reaction is then spotted onto a P30 filtermat and washed three times for 5 minutes in 75 mM phosphoric acid and once in methanol prior to drying and scintillation counting.
IC50 values for inhibitor peptides were determined using Millipore's IC50Profiler Express service. The IC50 value was estimated from a 10-point curve of one-half log dilutions. […]

T3 sequence (P07949 29-1114): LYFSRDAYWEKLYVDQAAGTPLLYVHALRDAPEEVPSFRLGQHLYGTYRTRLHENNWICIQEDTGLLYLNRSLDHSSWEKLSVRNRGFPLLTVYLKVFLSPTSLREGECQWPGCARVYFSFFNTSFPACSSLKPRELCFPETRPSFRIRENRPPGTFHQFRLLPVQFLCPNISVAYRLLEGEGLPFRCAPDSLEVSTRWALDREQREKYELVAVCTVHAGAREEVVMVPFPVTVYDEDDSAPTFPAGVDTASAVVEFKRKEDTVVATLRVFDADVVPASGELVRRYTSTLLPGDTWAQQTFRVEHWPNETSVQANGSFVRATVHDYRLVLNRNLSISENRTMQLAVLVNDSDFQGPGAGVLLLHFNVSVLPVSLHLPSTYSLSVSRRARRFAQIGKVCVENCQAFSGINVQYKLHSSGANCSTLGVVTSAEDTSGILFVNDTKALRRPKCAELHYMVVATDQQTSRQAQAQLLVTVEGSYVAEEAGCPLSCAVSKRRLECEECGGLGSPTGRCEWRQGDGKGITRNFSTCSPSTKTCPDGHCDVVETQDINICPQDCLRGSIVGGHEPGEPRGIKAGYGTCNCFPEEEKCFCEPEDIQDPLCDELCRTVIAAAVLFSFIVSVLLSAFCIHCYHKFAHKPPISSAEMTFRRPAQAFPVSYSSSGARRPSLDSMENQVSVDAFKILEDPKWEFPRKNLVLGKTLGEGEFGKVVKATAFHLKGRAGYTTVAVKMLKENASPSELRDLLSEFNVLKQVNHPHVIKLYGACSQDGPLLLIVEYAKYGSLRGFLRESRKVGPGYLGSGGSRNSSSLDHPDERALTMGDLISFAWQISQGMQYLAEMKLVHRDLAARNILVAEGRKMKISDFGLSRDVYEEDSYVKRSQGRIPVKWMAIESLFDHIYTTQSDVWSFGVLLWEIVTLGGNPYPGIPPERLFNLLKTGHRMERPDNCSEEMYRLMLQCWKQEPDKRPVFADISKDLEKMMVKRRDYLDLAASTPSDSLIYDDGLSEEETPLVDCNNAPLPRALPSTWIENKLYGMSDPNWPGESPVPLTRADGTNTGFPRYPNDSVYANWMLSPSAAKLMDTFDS

Row | Sequence | JAK3 Kinase Activity (%) (+SD %) (JAK3; peptide 100 μM) | EGFR Kinase Activity (%) (+SD %) (EGFR; peptide 100 μM) | Ret Kinase Activity (%) (+SD %) (Ret) | JAK3 Kinase Activity (%) (+SD %) (JAK3; peptide 30 μM) | EGFR Kinase Activity (%) (+SD %) (EGFR; peptide 30 μM)
1 | KAFAKLAARLYRKALARQLGVAA | 91 (8) % | 16 (1) % | 107 (9) % |  | 
2 | WLRRIKAWLRRIKALNRQLGVAA | 102 (2) % | 18 (2) % | 89 (0) % | 85 (5) % | 10 (4) %
